Experimental data reported in patent US20200270325A1 (Merck Sharp & Dohme, published 2020).
Numbered stars: 1 amine (or outer) side, 2 acyl side, 3 side chain; on linkers, the order of the positions; unused ones are H or OH. Square brackets hold non-standard residues; d marks the D form. Side chains are listed from the residue outwards. Ends that are not written are not given here. * marks the point of attachment. C18 diacid = O=C(O)CCCCCCCCCCCCCCCCC(=O)*; C16 diacid = O=C(O)CCCCCCCCCCCCCCC(=O)*; γGlu = O=C(O)[C@H](CCC(=O)[*:2])N[*:1]; Met(O2) = CS(=O)(=O)CC[C@H](N)C(=O)O; αMeD = C[C@](N)(CC(=O)O)C(=O)O; AEEA = NCCOCCOCC(=O)O; Aib = CC(C)(N)C(=O)O

B1: TP735 (peptide)
peptide: H[Aib]QGTFTSDYSKYLDARAAK([AEEA-AEEA-γGlu-C18 diacid])DFVQWL[Met(O2)][αMeD]T-OH
modifications: N-terminus assumed
SMILES: CC(C)C[C@H](NC(=O)[C@H](Cc1ccc(O)cc1)NC(=O)[C@H](CCCCN)NC(=O)[C@H](CO)NC(=O)[C@H](Cc1ccc(O)cc1)NC(=O)[C@H](CC(=O)O)NC(=O)[C@H](CO)NC(=O)[C@@H](NC(=O)[C@H](Cc1ccccc1)NC(=O)[C@@H](NC(=O)CNC(=O)[C@H](CCC(N)=O)NC(=O)C(C)(C)NC(=O)[C@@H](N)Cc1c[nH]cn1)[C@@H](C)O)[C@@H](C)O)C(=O)N[C@@H](CC(=O)O)C(=O)N[C@@H](C)C(=O)N[C@@H](CCCNC(=N)N)C(=O)N[C@@H](C)C(=O)N[C@@H](C)C(=O)N[C@@H](CCCCNC(=O)COCCOCCNC(=O)COCCOCCNC(=O)CC[C@H](NC(=O)CCCCCCCCCCCCCCCCC(=O)O)C(=O)O)C(=O)N[C@@H](CC(=O)O)C(=O)N[C@@H](Cc1ccccc1)C(=O)N[C@H](C(=O)N[C@@H](CCC(N)=O)C(=O)N[C@@H](Cc1c[nH]c2ccccc12)C(=O)N[C@@H](CC(C)C)C(=O)N[C@@H](CCS(C)(=O)=O)C(=O)N[C@@](C)(CC(=O)O)C(=O)N[C@H](C(=O)O)[C@@H](C)O)C(C)C
B2: TP812 (peptide)
peptide: H[Aib]QGTFTSDYSKYLDARAAK([AEEA-AEEA-γGlu-C16 diacid])EFVQWL[Met(O2)]DT-NH2
modifications: N-terminus assumed
SMILES: CC(C)C[C@H](NC(=O)[C@H](Cc1ccc(O)cc1)NC(=O)[C@H](CCCCN)NC(=O)[C@H](CO)NC(=O)[C@H](Cc1ccc(O)cc1)NC(=O)[C@H](CC(=O)O)NC(=O)[C@H](CO)NC(=O)[C@@H](NC(=O)[C@H](Cc1ccccc1)NC(=O)[C@@H](NC(=O)CNC(=O)[C@H](CCC(N)=O)NC(=O)C(C)(C)NC(=O)[C@@H](N)Cc1c[nH]cn1)[C@@H](C)O)[C@@H](C)O)C(=O)N[C@@H](CC(=O)O)C(=O)N[C@@H](C)C(=O)N[C@@H](CCCNC(=N)N)C(=O)N[C@@H](C)C(=O)N[C@@H](C)C(=O)N[C@@H](CCCCNC(=O)COCCOCCNC(=O)COCCOCCNC(=O)CC[C@H](NC(=O)CCCCCCCCCCCCCCC(=O)O)C(=O)O)C(=O)N[C@@H](CCC(=O)O)C(=O)N[C@@H](Cc1ccccc1)C(=O)N[C@H](C(=O)N[C@@H](CCC(N)=O)C(=O)N[C@@H](Cc1c[nH]c2ccccc12)C(=O)N[C@@H](CC(C)C)C(=O)N[C@@H](CCS(C)(=O)=O)C(=O)N[C@@H](CC(=O)O)C(=O)N[C@H](C(N)=O)[C@@H](C)O)C(C)C
B3: TP811 (peptide)
peptide: H[Aib]QGTFTSDYSKYLD[Aib]RAAQDFVK([AEEA-AEEA-γGlu-C16 diacid])WL[Met(O2)]DT-NH2
modifications: N-terminus assumed
SMILES: CC(C)C[C@H](NC(=O)[C@H](Cc1c[nH]c2ccccc12)NC(=O)[C@H](CCCCNC(=O)COCCOCCNC(=O)COCCOCCNC(=O)CC[C@H](NC(=O)CCCCCCCCCCCCCCC(=O)O)C(=O)O)NC(=O)[C@@H](NC(=O)[C@H](Cc1ccccc1)NC(=O)[C@H](CC(=O)O)NC(=O)[C@H](CCC(N)=O)NC(=O)[C@H](C)NC(=O)[C@H](C)NC(=O)[C@H](CCCNC(=N)N)NC(=O)C(C)(C)NC(=O)[C@H](CC(=O)O)NC(=O)[C@H](CC(C)C)NC(=O)[C@H](Cc1ccc(O)cc1)NC(=O)[C@H](CCCCN)NC(=O)[C@H](CO)NC(=O)[C@H](Cc1ccc(O)cc1)NC(=O)[C@H](CC(=O)O)NC(=O)[C@H](CO)NC(=O)[C@@H](NC(=O)[C@H](Cc1ccccc1)NC(=O)[C@@H](NC(=O)CNC(=O)[C@H](CCC(N)=O)NC(=O)C(C)(C)NC(=O)[C@@H](N)Cc1c[nH]cn1)[C@@H](C)O)[C@@H](C)O)C(C)C)C(=O)N[C@@H](CCS(C)(=O)=O)C(=O)N[C@@H](CC(=O)O)C(=O)N[C@H](C(N)=O)[C@@H](C)O
B4: TP737 (peptide)
peptide: H[Aib]QGTFTSDYSKYLD[Aib]RAAQDFVK([AEEA-AEEA-γGlu-C18 diacid])WL[Met(O2)]DT-OH
modifications: N-terminus assumed
SMILES: CC(C)C[C@H](NC(=O)[C@H](Cc1c[nH]c2ccccc12)NC(=O)[C@H](CCCCNC(=O)COCCOCCNC(=O)COCCOCCNC(=O)CC[C@H](NC(=O)CCCCCCCCCCCCCCCCC(=O)O)C(=O)O)NC(=O)[C@@H](NC(=O)[C@H](Cc1ccccc1)NC(=O)[C@H](CC(=O)O)NC(=O)[C@H](CCC(N)=O)NC(=O)[C@H](C)NC(=O)[C@H](C)NC(=O)[C@H](CCCNC(=N)N)NC(=O)C(C)(C)NC(=O)[C@H](CC(=O)O)NC(=O)[C@H](CC(C)C)NC(=O)[C@H](Cc1ccc(O)cc1)NC(=O)[C@H](CCCCN)NC(=O)[C@H](CO)NC(=O)[C@H](Cc1ccc(O)cc1)NC(=O)[C@H](CC(=O)O)NC(=O)[C@H](CO)NC(=O)[C@@H](NC(=O)[C@H](Cc1ccccc1)NC(=O)[C@@H](NC(=O)CNC(=O)[C@H](CCC(N)=O)NC(=O)C(C)(C)NC(=O)[C@@H](N)Cc1c[nH]cn1)[C@@H](C)O)[C@@H](C)O)C(C)C)C(=O)N[C@@H](CCS(C)(=O)=O)C(=O)N[C@@H](CC(=O)O)C(=O)N[C@H](C(=O)O)[C@@H](C)O
B5: TP736 (peptide)
peptide: H[Aib]QGTFTSDYSKYLDARAAK([AEEA-AEEA-γGlu-C18 diacid])DFVQWL[Met(O2)]DT-OH
modifications: N-terminus assumed
SMILES: CC(C)C[C@H](NC(=O)[C@H](Cc1ccc(O)cc1)NC(=O)[C@H](CCCCN)NC(=O)[C@H](CO)NC(=O)[C@H](Cc1ccc(O)cc1)NC(=O)[C@H](CC(=O)O)NC(=O)[C@H](CO)NC(=O)[C@@H](NC(=O)[C@H](Cc1ccccc1)NC(=O)[C@@H](NC(=O)CNC(=O)[C@H](CCC(N)=O)NC(=O)C(C)(C)NC(=O)[C@@H](N)Cc1c[nH]cn1)[C@@H](C)O)[C@@H](C)O)C(=O)N[C@@H](CC(=O)O)C(=O)N[C@@H](C)C(=O)N[C@@H](CCCNC(=N)N)C(=O)N[C@@H](C)C(=O)N[C@@H](C)C(=O)N[C@@H](CCCCNC(=O)COCCOCCNC(=O)COCCOCCNC(=O)CC[C@H](NC(=O)CCCCCCCCCCCCCCCCC(=O)O)C(=O)O)C(=O)N[C@@H](CC(=O)O)C(=O)N[C@@H](Cc1ccccc1)C(=O)N[C@H](C(=O)N[C@@H](CCC(N)=O)C(=O)N[C@@H](Cc1c[nH]c2ccccc12)C(=O)N[C@@H](CC(C)C)C(=O)N[C@@H](CCS(C)(=O)=O)C(=O)N[C@@H](CC(=O)O)C(=O)N[C@H](C(=O)O)[C@@H](C)O)C(C)C

How the values were obtained:
[1] = molecular target: human Glucagon receptor (GCGR) (human, UniProt P47871 26-477); test: cell-based or functional assay
human Glucagon receptor (GCGR), sequence (P47871 26-477): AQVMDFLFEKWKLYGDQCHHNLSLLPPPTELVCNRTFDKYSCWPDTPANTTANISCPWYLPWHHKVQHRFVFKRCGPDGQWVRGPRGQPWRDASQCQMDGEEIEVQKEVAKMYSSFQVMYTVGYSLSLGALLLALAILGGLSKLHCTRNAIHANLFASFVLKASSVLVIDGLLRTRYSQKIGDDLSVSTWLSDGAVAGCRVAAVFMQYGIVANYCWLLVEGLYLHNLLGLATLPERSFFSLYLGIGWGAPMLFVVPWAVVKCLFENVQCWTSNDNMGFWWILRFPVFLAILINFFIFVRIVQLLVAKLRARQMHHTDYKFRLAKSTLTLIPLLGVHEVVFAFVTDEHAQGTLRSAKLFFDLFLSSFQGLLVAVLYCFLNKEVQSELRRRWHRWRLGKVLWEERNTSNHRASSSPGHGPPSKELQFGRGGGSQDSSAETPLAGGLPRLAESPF

[2] = molecular target: human GLP-1 receptor (GLP1R) (human, UniProt P43220 24-463); test: cell-based or functional assay

| Binder | GCGR EC50 human [1] [nM] | GLP1R EC50 human [2] [nM] |
| --- | --- | --- |
| B1 | 0.895 | 0.648 |
| B2 | 0.2 | 0.088 |
| H[Aib]QGTFTSDYSKYLD[Aib]RAAK([AEEA-AEEA-γGlu-C20‑OH])DFVQWL[Met(O2)][αMeD]T-NH2 [TP588] | 2.67 | 2.92 |
| B3 | 0.21 | 0.26 |
| B4 | 1.56 | 2.67 |
| B5 | 3.19 | 1.15 |
